The target of test [1] is ribosome-nascent chain complex (RNC) of Sec61β, TMD inside the ribosomal tunnel (UniProt P60468). The test is described as follows: co-IP.
The target in test [2] is ribosomes purified under native conditions from reticulocyte lysate. Kind of test: co-sedimentation.

A value given as a limit tells only on which side of the number the result lay.

This passage reports occupancy of RNCs and percent ribosome-bound results from article PMC2928861.

UniProt P60468, sequence (P60468 whole entry, looked up, one chain of several): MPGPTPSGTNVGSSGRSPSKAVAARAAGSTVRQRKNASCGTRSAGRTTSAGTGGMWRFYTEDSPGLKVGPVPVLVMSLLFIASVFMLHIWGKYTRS

In test [1], “Bat3 complex (Bat3, TRC35 and Ubl4A) (from UniProt P46379;Q7L5D6;P11441)” displayed an occupancy of RNCs of 27%.

“SRP (signal recognition particle), followed by its subunit SRP54 (from UniProt P61011 1-504) (complex)” registered a percent ribosome-bound in test [2] of 30 to 50%. In test [1], the occupancy of RNCs worked out at 7%.

For the substance “TRC40 (from UniProt O43681 1-348) (natural protein)”, in test [2], the percent ribosome-bound is less than 1%.
